The source of these data is patent US20160083480A1 (Zymeworks, published 2016).

Test [1] addresses T1, HER2 and HER3 co-expressed on human tumour cells (human, UniProt P04626 23-1255; P21860 20-1342).
T1 construct: whole, on cells; also called HER2/3-expressing cells; cells expressing HER2 and HER3
The experiment in a line: flow cytometry on MALME-3M cells, fluorochrome-labelled secondary antibody. The method, then: (§1) The FACS analysis was carried out as described below.
(§2) Cells were washed with PBS and resuspended in DMEM containing 10% FBS at 1×10⁵ cells/100 μl. 100 μl cell suspension was added into each microcentrifuge tube, followed by 10 μl/tube of the antibody variants. The tubes were incubated for 2 hr 4° C. on a rotator. The microcentrifuge tubes were centrifuged for 2 min 2000 RPM at room temperature and the cell pellets washed with 500 μl media. Each cell pellet was resuspended 100 μl of fluorochrome-labelled secondary antibody diluted in media to 2 μg/sample. The samples were then incubated for 1 hr at 4° C. on a rotator. After incubation, the cells were centrifuged for 2 min at 2000 RPM and washed in media. The cells were resuspended in 500 μl media, filtered in tube containing 5 μl propidium iodide (PI) and analyzed on a BD™ LSRII flow cytometer according to the manufacturer's instructions.
(In flow cytometry, cells or beads pass a laser one at a time.)

Test [2] concerns the target T1, HER2 and HER3 co-expressed on human …. Briefly: cell-based or functional assay.
The target in test [3] is T2, HER3 on human tumour cells (human, UniProt P21860 20-1342).
T2 construct: whole, on cells; also called ErbB3
Briefly: flow cytometry on MALME-3M cells, fluorochrome-labelled secondary antibody. As for the experimental part: as §1, §2

B1: Variant 880 (bi-specific anti-HER2-HER3 antibody; B1D2 scFv on chain A, H3 scFv on chain B, heterodimeric Fc) (bispecific antibody)
scFv-Fc A: QVQLVQSGAEVKKPGESLKISCKGSGYSFTSYWIAWVRQMPGKGLEYMGLIYPGDSDTKYSPSFQGQVTISVDKSVSTAYLQWSSLKPSDSAVYFCARHDVGYCTDRTCAKWPEWLGVWGQGTLVTVSSGGGGSSGGGSGGGGSQSVLTQPPSVSAAPGQKVTISCSGSSSNIGNNYVSWYQQLPGTAPKLLIYDHTNRPAGVPDRFSGSKSGTSASLAISGFRSEDEADYYCASWDYTLSGWVFGGGTKLTVLGAAEPKSSDKTHTCPPCPAPELLGGPSVFLFPPKPKDTLMISRTPEVTCVVVDVSHEDPEVKFNWYVDGVEVHNAKTKPREEQYNSTYRVVSVLTVLHQDWLNGKEYKCKVSNKALPAPIEKTISKAKGQPREPQVYTYPPSRDELTKNQVSLTCLVKGFYPSDIAVEWESNGQPENNYKTTPPVLDSDGSFALVSKLTVDKSRWQQGNVFSCSVMHEALHNHYTQKSLSLSPGK
scFv-Fc B: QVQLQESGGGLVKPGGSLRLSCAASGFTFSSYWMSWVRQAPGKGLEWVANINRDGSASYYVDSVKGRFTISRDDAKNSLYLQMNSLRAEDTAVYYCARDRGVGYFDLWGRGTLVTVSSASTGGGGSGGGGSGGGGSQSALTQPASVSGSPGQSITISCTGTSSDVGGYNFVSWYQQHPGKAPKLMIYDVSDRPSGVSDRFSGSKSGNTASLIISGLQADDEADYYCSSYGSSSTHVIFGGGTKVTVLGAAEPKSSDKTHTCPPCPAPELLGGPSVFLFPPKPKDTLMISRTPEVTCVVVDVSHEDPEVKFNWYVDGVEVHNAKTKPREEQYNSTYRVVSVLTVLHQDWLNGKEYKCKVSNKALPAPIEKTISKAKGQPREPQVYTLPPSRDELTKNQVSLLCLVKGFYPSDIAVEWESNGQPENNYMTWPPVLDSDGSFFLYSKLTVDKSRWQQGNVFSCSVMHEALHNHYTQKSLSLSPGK
notes: also called v880; bsAb variant 880
As to B1, the concentration giving a half-maximal response (EC50 (read off the curve)) – broadly, the midpoint of the concentration-response curve – in test [1] is approximately 10 nM. In test [2], the “BT-474 cell viability relative to untreated cells (Sulforhodamine B, 6 days, no heregulin)” value is 36 % increase.

B2: v877 (monospecific bivalent antibody with two identical HER3-binding scFvs connected to a homodimeric Fc) (antibody, V domains shown)
VH: QVQLQESGGGLVKPGGSLRLSCAASGFTFSSYWMSWVRQAPGKGLEWVANINRDGSASYYVDSVKGRFTISRDDAKNSLYLQMNSLRAEDTAVYYCARDRGVGYFDLWGRGTLVTVSS
VL: QSALTQPASVSGSPGQSITISCTGTSSDVGGYNFVSWYQQHPGKAPKLMIYDVSDRPSGVSDRFSGSKSGNTASLIISGLQADDEADYYCSSYGSSSTHVIFGGGTKVTVL
notes: also called variant 877; monospecific bivalent control for HER3
Take B2: in test [3], the binding result was “binds”.
